Tests used:
PPARγ2 S273A mutant = molecular target: T1, PPARγ2 S273A mutant (Homo sapiens, UniProt P37231, S273A); experiment: aP2 promoter luciferase reporter with PPARγ2 S273A mutant in HEK-293T cells; format: cell-based; settings: overexpression of 14-3-3β or 14-3-3γ, FIG. 4C/4D
T1 construct: expressed in transfected cells; host or cells: HEK-293T
T1 sequence (P37231 1-505 S273A): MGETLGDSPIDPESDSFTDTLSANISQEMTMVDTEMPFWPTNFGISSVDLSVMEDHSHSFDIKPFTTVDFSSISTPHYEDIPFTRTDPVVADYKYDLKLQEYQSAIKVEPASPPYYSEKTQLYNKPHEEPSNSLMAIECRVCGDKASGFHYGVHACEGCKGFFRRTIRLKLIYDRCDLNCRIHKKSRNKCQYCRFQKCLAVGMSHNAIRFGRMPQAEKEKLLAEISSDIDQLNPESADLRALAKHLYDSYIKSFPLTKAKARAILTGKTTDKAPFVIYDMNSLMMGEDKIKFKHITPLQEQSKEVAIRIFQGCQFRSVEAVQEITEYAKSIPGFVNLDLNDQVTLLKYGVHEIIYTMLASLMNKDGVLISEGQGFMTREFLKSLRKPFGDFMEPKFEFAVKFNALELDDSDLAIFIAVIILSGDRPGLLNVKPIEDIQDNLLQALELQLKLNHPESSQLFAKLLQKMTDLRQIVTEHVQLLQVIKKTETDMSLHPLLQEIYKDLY
Description: In addition, HEK-293T cells were seeded in a 12-well plate at a density of 1×10^5 cells per each well, and then transfected with an aP2 promoter construct (0.5 μg), Flag-PPARγ2 (S112A) DNA (0.5 μg) or Flag-PPARγ2 (S273A) DNA (0.5 μg), and mGST-14-3-3β DNA (0.5 μg) or mGST-14-3-3γ DNA (0.5 μg) using an E-fection plus reagent (Lugen). A ratio of DNA to the E-fection plus reagent was 1:2, and this method was performed according to a manufacturer's manual. The corresponding cells were washed with ice-cold PBS, and lysed using 80 μl/well of a reporter lysis buffer (Promega, Madison, Wis.), and the lysed cells were centrifuged at 10,000×g and 4° C. for 10 minutes to collect a supernatant, and luciferase activity was measured. As an instrument, Luminometer 20/20n (Turner Biosystems, Sunnyvale, Calif.) was used. For normalization, the cells were cotransfected with pSV40-β-galactosidase. For the collected supernatant, β-galactosidase activity was measured and the luciferase activity was revised, and the obtained values were plotted. At this time, a β-galactosidase enzyme analysis system (Promega, Madison, Wis.) was used, and analysis was performed using a DU530 spectrophotometer (Beckman Instruments, Palo Alto, Calif.).

[1] = molecular target: T2, PPARγ2 deletion mutant (1-310) (Homo sapiens, UniProt P37231); experiment: GST-pull down assay with PPARγ2 deletion mutant (1-310); format: binding; settings: FIG. 3B/3C
T2 construct: Flag-PPARγ2 (1-310) DNA (4 μg); expressed in transfected cells; host or cells: HEK-293T
T2 sequence (P37231 1-310): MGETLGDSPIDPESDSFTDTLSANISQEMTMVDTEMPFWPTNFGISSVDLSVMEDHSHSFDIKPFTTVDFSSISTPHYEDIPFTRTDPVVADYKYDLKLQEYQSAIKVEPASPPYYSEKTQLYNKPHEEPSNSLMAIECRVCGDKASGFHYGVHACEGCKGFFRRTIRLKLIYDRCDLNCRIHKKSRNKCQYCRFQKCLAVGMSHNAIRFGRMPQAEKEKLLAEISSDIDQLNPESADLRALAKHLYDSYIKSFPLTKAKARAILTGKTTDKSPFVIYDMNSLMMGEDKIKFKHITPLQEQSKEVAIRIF
Description: HEK-293T cells were seeded in a 100 mm plate at a density of 2×10^6 cells per each well, and then transfected with Flag-PPARγ2 (1-505) DNA (4 μg), Flag-PPARγ2 (1-310) DNA (4 μg), Flag-PPARγ2 (139-505) DNA (4 μg), and mGST-14-3-3β (4 μg) or mGST-14-3-3γ (4 μg) using an E-fection plus reagent (Lugen). For Flag-PPARγ2 (1-310) DNA and Flag-PPARγ2 (139-505) DNA, DNA fragments amplified through polymerase chain reaction (PCR) were cloned into a pCMV-3Tag-1 vector using restriction enzymes XhoI and ApaI. A ratio of DNA to the E-fection plus reagent was 1:2, and this method was performed according to a manufacturer's manual. The corresponding cells were washed with ice-cold PBS and lysed using 500 μl/well of a lysis buffer (150 mM NaCl, 1 mM EDTA, 1% Nonidet P-40, 5% glycerol, 25 mM tris-HCl, pH 7.5, protease inhibitor added), and the lysed cells were centrifuged at 10,000×g and 4° C. for 10 minutes to extract proteins. Thereafter, 1,000 μg of the proteins was reacted with 20 μl of glutathione Sepharose 4B beads (GE Healthcare, Buckinghamshire, UK) for 6 hours, and then washing of the beads with 1 ml of ice-cold PBS was repeated 5 times, and the beads were boiled at 100° C. for 10 minutes, followed by 10% SDS-PAGE gel separation and western blotting. A ratio of GST antibodies (Santa Cruz) to Flag antibodies (Santa Cruz) was 1:3000. […]

SREBP-1c protein = SREBP-1c protein expression by western blotting in HepG2 cells; format: cell-based; settings: HepG2, overexpression, 200 μM oleic acid 72 hours, FIG. 7D
Description: In addition, HepG2 cells were seeded in a 6-well plate at a density of 5×10^5 cells per each well, and then transfected with HA-14-3-3β DNA (1 μg) or HA-14-3-3γ DNA (1 μg) using an E-fection plus reagent (Lugen). A ratio of DNA to the E-fection plus reagent was 1:2, and this method was performed according to a manufacturer's manual. After transfection, the cells were treated with 200 μM of oleic acid (OA) for 72 hours, washed with ice-cold PBS, and lysed with 80 μl/well of a lysis buffer (150 mM NaCl, 1 mM EDTA, 1% Nonidet P-40, 5% glycerol, 25 mM tris-HCl, pH 7.5, protease inhibitor added), the lysed cells were centrifuged at 10,000×g and 4° C. for 10 minutes to extract proteins, and 30 μg of the proteins was separated on a 10% SDS-PAGE gel and identified using each of the antibodies (HA, SREBP-1c: Santa Cruz) by western blotting, and all antibodies were used in a ratio of 1:3000.

Row | Substance | transcriptional activity of PPARγ2 S273A mutant (PPARγ2 S273A mutant) | binding to PPARγ2 deletion mutant (1-310) [1] | expression of the SREBP-1c protein (SREBP-1c protein)
1 | 14-3-3β: 14-3-3 isoform protein overexpressed by DNA transfection; increases the transcriptional activity of PPARγ2 by binding to PPARγ2 | no change | bound | increased
2 | 14-3-3γ: 14-3-3 isoform protein overexpressed by DNA transfection; decreases the transcriptional activity of PPARγ2; proposed active ingredient | no change | bound | reduced

— patent publication US10688197B2, “Non-alcoholic fatty liver regulator 14-3-3 protein” (Korea University Research and Business Foundation, priority 2015, dated 2020)
